{"source": "the nanobody polyreactivity screen of Harvey et al. (2022)", "data": [{"experiment": "yeast display, Sf9 membrane polyspecificity reagent, FACS + sequencing; frameworks hold sequencing errors", "outline": "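Nanobodies from a synthetic yeast display library (Saccharomyces cerevisiae BJ5465), induced 36–48 hours with galactose, were stained 1 hour at 4 °C with 10% biotinylated, detergent-solubilized Sf9 membrane reagent, enriched on streptavidin microbeads, then FACS-sorted. Anti-HA (expression) and streptavidin (reagent binding) fluorescence set low and high (top ~1%) gates. Polyreactivity labels come from the gate of origin. Genes were colony-PCR amplified, MiSeq 2 × 250 sequenced and filtered by CDR length.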", "values": [{"sequence": "QVQHVESGGGLVQAGCSLRLSCAASGRTFTYYAMGWYRQARGKESELVATISWRGSSTYYADSVKGRFTISRDNAKNTVYLQMNSLKPEDTAFYYCAARTYRWGYEDNYWGQGTQVTVSS", "polyreactivity (PSR sort gate)": "high polyreactivity"}, {"sequence": "QVQLVESGGGLVLAGGSLRLSCAASGIIFKIYAMGWFRQAPGKEMELVADITSVGSTKYADSVKGRFTISRDNAKNTVYLQMNSLKPEDTAVYYCATDWVTSHDDDYWGQGTQVTVSS", "polyreactivity (PSR sort gate)": "low polyreactivity"}, {"sequence": "QVQLVESGGGLVQAGGSLRLSSAASGFTFDYNTMGWDRQAPGKERELVAGISRGGGSTYYADSVKGRFTISRDNAKNTVYLQMNSLKPEDTAVYYCNTVLKRQRKNEYWGQGTQVTVSS", "polyreactivity (PSR sort gate)": "high polyreactivity"}, {"sequence": "QVQLVESGGGLDQAGGSLRLSCAASGRTFGRNAMGWYRQAPGKESELVAASSTRGGSTFYADSVKARFTISRDNAKNTVYLQMNSLKPEDTAVYYCAAAGTARWPRPTSGLLDYYYWGQVTQVTVSS", "polyreactivity (PSR sort gate)": "high polyreactivity"}, {"sequence": "QVQLVESGGGLVQAGGSLRLSCAASGRTFWGYTMGWYRQAPGKERELVAAITASGGSTRYADSVKGRFTISRDNAKNTVYLQMNSLKPEDTAVYYCASRGQYFTDYYYRGNYWGQGTQVTVSS", "polyreactivity (PSR sort gate)": "high polyreactivity"}, {"sequence": "QDQLVVSGGGLVQAGGSLRLSCAASGFIFYRYSMGWYSQEPGKEREVVASITRSGGSTYYAASVKGRFTISRDKAKNTLYLPMNSLKPVETAVYYCATAIRYFVSYDYWGQGTEVTVSS", "polyreactivity (PSR sort gate)": "high polyreactivity"}, {"sequence": "QVQLVESGGGLVQAGGSLRLSCAASGLIFYKYAMGWYRPAPGKERELVAAISSSGGSTYYADSVKGRFTISRDNAKNTVYLQMNSLKPEDTAVYYCAARTNRRGYNYWGQGTQVTVSS", "polyreactivity (PSR sort gate)": "high polyreactivity"}, {"sequence": "QVQLGESGGGLVQAGGSLRLSCAASGIILHGYAMGWYRPAPGKEREFVATITLSGSSTYYADSVKGRFTISRDNAKNTVYLQMNSRKAEDTAVYYSAARTWVIVYGLQYDYWGHGTQVTVSS", "polyreactivity (PSR sort gate)": "high polyreactivity"}, {"sequence": "HDQLVESGGGLVQAGGSLRLSCAASGNTFIYYAMGWYRQAPGKEREMVAAISRSGGSTYYADSVKGRFTISRDNAKNTVYLQMNSLKPEDTAVYYCAAEATKWIGVVTMDYWGQGTQVTVSS", "polyreactivity (PSR sort gate)": "high polyreactivity"}, {"sequence": "QVQLVESGGGLVQAGGSLRLSCAASGFIFPVYTKGWYRQAPGKERELVAAITQIGGSTHYADSVKGRFTISRDNAKNTVYLQMNSLKPEDTAVDYCNAVPSYGTEYDYWGQGTQVTVSS", "polyreactivity (PSR sort gate)": "low polyreactivity"}, {"sequence": "QVQLVESGGGLVQAGGSLRLSCAASGSTSYVYAMGWYRQAPGKERELVAAISNTGNTNYADSVKGRFTISRDNAKNTVYLQMNSLKPEDTAVYYCNADRRGENDWHERDYWGQGTQVTVSS", "polyreactivity (PSR sort gate)": "low polyreactivity"}, {"sequence": "QVQLVESGGGLVQAGGSLRLSCAASGFIFWRNAMGWYRQAPGKERELVAAITSGDRTNYADSVKGRFTISRDNAKNTVYLQMNSLKPEDTAVYYCNARRLRLVSYDYCGQGTQVTVSS", "polyreactivity (PSR sort gate)": "low polyreactivity"}, {"sequence": "QDQLVESGGGLVQAGGSLRLSCAASGGIFPDNAMGWSRKAPGKERELVATISWSGGSTYADSVKWRFTISRDNAKNTVYLQMNRLKPEDTAVYYCAAGSAYLWGQGTQVSVSS", "polyreactivity (PSR sort gate)": "low polyreactivity"}, {"sequence": "QVQLVESGGGLVQAGGSLRLRCAASGITFPNYAMGWYRQAPGKERELVAAISSGGSTTYADSVKGRFTISRDNAKNTVYLQMNSLKPEDTAVYYCNADISAHYVIGVPTGYYWGQGTQVTVSS", "polyreactivity (PSR sort gate)": "low polyreactivity"}, {"sequence": "QVQLVESGGGLVQAGGSLRLSSAASGGIFQLYAMGWYRQAPGKERELVADISRSGGSTYYADSVKGRFTISRDTAKNTVYLQMNSLKPEDTAVYYCAARYWTSIVRYRGDYWGQGTQVTVSS", "polyreactivity (PSR sort gate)": "high polyreactivity"}, {"sequence": "QVQLVESGGGLVQAGGSLRLSCAASGITFIYYAMGWYRQAPGKERELVAAISRSGGSTYYADSVKGRFTISRDNAKNTVYLQMNSLKPEDTAVYYCAADGTKFSGRVTGDYWGQGTQVTVSS", "polyreactivity (PSR sort gate)": "high polyreactivity"}, {"sequence": "QVQLVESVGGLVQAGGSLRLSCAASGSIFRLYALGWSRQAPGKERELVAAIRYSTGRTYSADSVKGRFTISRDNAKNTVYLQMNSLKPEDTAVYYCNARSWYIRGSQEYYYWGQGTQVTVSS", "polyreactivity (PSR sort gate)": "high polyreactivity"}, {"sequence": "QVQLVESGGGLVQAGGSIRLSCAASGRIFGAYAIGWYRQAPGKERELVADIRTTGSTNYADSVKGRFTISRDNAKNTVYLQMNSLKPEDTAVYYCAARWRSRRFGSGFEYWGQGTQVTVSS", "polyreactivity (PSR sort gate)": "high polyreactivity"}, {"sequence": "QVQHVESGGGLVQAGGSLRLSCAASGFTFRVYAMGWYRQARGKEMELVAAISRSGGSTYYADSVKRRFTISRDNEKNTVYLQMNSLKPEDTAVYYCGGGWKRGRYDYWGQGTQVTVSS", "polyreactivity (PSR sort gate)": "high polyreactivity"}, {"sequence": "QVQLVESGGGLVQAGGILRLSSAASGSIFSNYAMGWYRQAPGKERELVAAINRSGGSTYYADSVKGRFTISRDNAKNTVYLQITSLKPDDTAVYYCNAVRLYYCAGGQFQYHFWGQGTQVTVSS", "polyreactivity (PSR sort gate)": "high polyreactivity"}, {"sequence": "QVQLVESGGGLDQAGGSLRLSCAAYGSTFAPNAMGGYRQSPGKERELVAAISSGSSTYYADSVKGRFTISRDNAKNTVNLQMNSLKPEDTAVYYCIARGLSSLSTIEDYCGQGTQVTVSS", "polyreactivity (PSR sort gate)": "high polyreactivity"}, {"sequence": "QVQLVESGGGLVQAGGSLRLSCAASGFNFPDYAMGWYRQAPGKETELVAAITSAGGRTYYADSVKGRFTISRDNAKNTVYLQMNSLKPEDTAVFYCNALTTKGTGTYNGGYWGEGTQVTVSS", "polyreactivity (PSR sort gate)": "high polyreactivity"}, {"sequence": "QVQLVESGGGLVQAGGSLRLSCAASGSIFIFNAMGWYRQAPGKEREFVARIRRDSSTNYADSVKGRFTISRDNAKNTVYLQMNSLKPEDTAVYYCAAKRFYRRVELNSWGQGTQVTVSS", "polyreactivity (PSR sort gate)": "low polyreactivity"}, {"sequence": "QVQLVESGGVLVQAGGSLRLSCAASGSTFVRNAMGWYRQAPGKEWELVAAITGTGDSTYYADSVKGRFTISRDNAKNTVYLQMNSLKPEDTAVYYCAANSDAYRYWYDYWGQGTQVTVSS", "polyreactivity (PSR sort gate)": "low polyreactivity"}, {"sequence": "QVQLVESGGGLVQAGGSLRLSCAASGRTFTVYAMGWYRPAPGKERELVAAISSGGITYYADSVKGRFTISRDNAKNTVYLQMNSLKPEDTAVYYCNTKSGKARYEFGYWGQGTQVTVSS", "polyreactivity (PSR sort gate)": "low polyreactivity"}, {"sequence": "QVQLVESGGGLVQAGGSLRLSCAASGSTIVYYAMGWYIQAPGKERELVAAITSGGSTYDADSVKGRCTISRDNAKNTVYLQMNSQKPEDTAVYYCHADWWRGDEAYRMYYWGQGTQVTVSS", "polyreactivity (PSR sort gate)": "low polyreactivity"}, {"sequence": "QVQLVESGGGLVQAGGSLSLSCAASGRIFRYNAMGWYRQAPGKERELVATISRGGGSTYYADSVKGRFTISRDNAKNTVYLQMNSLKPEYTAVYYCAAVTYSRISGGYDYWGQGTQVTVSS", "polyreactivity (PSR sort gate)": "high polyreactivity"}, {"sequence": "QVQLVESGGGLVQAGGSLRLSCAASGIIFYVYAMGWYRQAPVKERELVAAISDTAGDTYYADSVKGRFTISRDNAKNTVYLQMNSLKPEDTAVYYCATDWFSYRGGIFDSWGQGTQVTVSS", "polyreactivity (PSR sort gate)": "low polyreactivity"}, {"sequence": "QVQLVESRGGLVQAGGSLRLSFPASGSTFYKYAKGWYRQAPGKERELVASISRRAGSTYYADSVKGRFTISRDNAKNTVDVQMTSLKPEDTAVYYCAAVGRYDRVFDYDYWGQGTQVTVSS", "polyreactivity (PSR sort gate)": "high polyreactivity"}, {"sequence": "QVQLVESGGGLVQAGGSLRLSCAASGSTFYRYAMGWYRQAPGKERELVATIRSSGDSTNYADSVKGRFTISRDNAKNTVYLQMNSLKPEDTAVYYCAKYGKYTWRQGGYWGQGTQVTVSS", "polyreactivity (PSR sort gate)": "high polyreactivity"}, {"sequence": "QVQLVESGGGLVQAGGSLRLSCAASGSIFGGYTMGWYRQAPGKERELVAAISARGGNTYYADSVKGRFTISRDNAKNTVYLQMNSLKPEDTAVYYCAKVRYTQSYRVYGYWGQGTQVTVSS", "polyreactivity (PSR sort gate)": "high polyreactivity"}, {"sequence": "QVQLVESGGGLVQAGGSLRLSCAASGFIVTANGMGWDRQAPGQERELVASISRRGGSTYYADSVKGRFTISRDNAKNTVYLQMNSLKPEDTAVYYCAARFYQEWGQGTQVTVSS", "polyreactivity (PSR sort gate)": "high polyreactivity"}, {"sequence": "QVQLVESGGGLVQAGGSLRLSCAASGRIFGYNAMGWYRQAPGKERELVAAISDDGSTNYADSVKGRFTISRDNAKNTVYLQMNSLKPEDTAVYYCNADITFYTWGWYYIRYEYWGQGTQVTVSS", "polyreactivity (PSR sort gate)": "low polyreactivity"}, {"sequence": "QVQLVESGGGLVQAGGSLRLSCAASGRTFVGYAMGWYRQAPGKERELVAAISGGGRTNYADSVKGRFTISRDNAKNTVYLQMISLKPEDTAVYYFAARLVKYFRPYDYWGQGTQVTVSS", "polyreactivity (PSR sort gate)": "high polyreactivity"}, {"sequence": "QVQLVESGGGLVQAGGILRVSCAASGYTFLGYAMGWYRQPPGKEMELVAVISRTGGRTYYADSVKGRFTISRDNAKNTVYLQMNSLKPEDTAVYYCATEDYRGPEYDYWGQGTQVNVSS", "polyreactivity (PSR sort gate)": "high polyreactivity"}, {"sequence": "QVQLVESGGGLVQAGGSLRLSCAASGRTFRSYAMGWYRQAPGKERELVAAISSGGSTNYADSVKGRFTISRDNAKNTVYLQMNSLKPEDTAVYYCNKVVHSFRFPYRYDMDYWGQGTQVTVSS", "polyreactivity (PSR sort gate)": "high polyreactivity"}, {"sequence": "QDQHVESGGGLVQAGGSLRLSCDASGRTFRKNAMGSYRQARGKERELVAAISWSGDSTYYADSVKGRFTISRDNAKNTVYLQMNSLKPEDSAVYYCAADSRYHFYYWRQGTQVTVSS", "polyreactivity (PSR sort gate)": "high polyreactivity"}, {"sequence": "QVQLVESGGGLVQAGGSLRLSCAASGITFQYYDMGWYRQAPGKEREFVAAISWRSGRTYYADSVKGRFTISRDNAKNTVYLQMNSLKPDDTAVYYCTAALYGVTTDMDYWGQGTQVTVSS", "polyreactivity (PSR sort gate)": "high polyreactivity"}, {"sequence": "QVQLVESGGGLVQAGGSLRFSCAASGSIFKGNVMGWYRQAPGKERELVAAITWSGGSTYYADSVKGRFTISRDNAKNTVSLQMNSLKPEDTAVYNCNTRWILGRRFYYWGQGTQVTVSS", "polyreactivity (PSR sort gate)": "high polyreactivity"}, {"sequence": "QVQLVESGGGLVQAGGSLRLRCAASGSTILYYAMGWYRQAPGKERELVADIDWSGDSTYYADSVKRRFRISRDNAKNTVYFQMNSLKPEDTAVYYCAATQYYPVPYDYWGQGTQVTVSS", "polyreactivity (PSR sort gate)": "low polyreactivity"}, {"sequence": "QVQLVESGGGLVQAGGSLRLSCAASGFILRGYAMGWYIQAPGKERELVDVITGRGDRTYYADSVKGRFTISRDNAKNTVYLQMNSLKPEETAVYYCAARAQPGGSSAIKMYYWGQGTQVTVSS", "polyreactivity (PSR sort gate)": "high polyreactivity"}, {"sequence": "QVQLVESGGGLVQAGCSLRLSCAASGSFFSSNSMGWYRQAPGTERELVAAISRSGGNTYYADSVKGRFTISRDNAKNTVYLQMNSLKPEDTAVYYCAVVGRHGQKYDWGQGNQVTVSS", "polyreactivity (PSR sort gate)": "high polyreactivity"}, {"sequence": "QVQLVESGGGLVQAGGSLRLSLAASGLSLRNYAMGWYRQAPGKERELVADITTGGGRTYYADSVKGRFTISRDNAKNTVYLQMNSLKPEDTAVYYCAAPTHLHGHGNQNEFYYWGQGTQVTVSS", "polyreactivity (PSR sort gate)": "low polyreactivity"}]}]}
